Assay results published in paper PMC8682804 (Science signaling, 2021).

Assays:
[1] = target: PTHR in membranes of HEK-293-Gs-null cells (clone CL2) (UniProt Q03431); assay: radioligand binding
[2] = target: T1, PTHR (Homo sapiens, UniProt Q03431); assay: Time-course measurement of cAMP by FRET; format: cell-based; conditions: comparison of PTH^WT and its diastereomers, fig. S1B
T1 sequence (Q03431 27-593): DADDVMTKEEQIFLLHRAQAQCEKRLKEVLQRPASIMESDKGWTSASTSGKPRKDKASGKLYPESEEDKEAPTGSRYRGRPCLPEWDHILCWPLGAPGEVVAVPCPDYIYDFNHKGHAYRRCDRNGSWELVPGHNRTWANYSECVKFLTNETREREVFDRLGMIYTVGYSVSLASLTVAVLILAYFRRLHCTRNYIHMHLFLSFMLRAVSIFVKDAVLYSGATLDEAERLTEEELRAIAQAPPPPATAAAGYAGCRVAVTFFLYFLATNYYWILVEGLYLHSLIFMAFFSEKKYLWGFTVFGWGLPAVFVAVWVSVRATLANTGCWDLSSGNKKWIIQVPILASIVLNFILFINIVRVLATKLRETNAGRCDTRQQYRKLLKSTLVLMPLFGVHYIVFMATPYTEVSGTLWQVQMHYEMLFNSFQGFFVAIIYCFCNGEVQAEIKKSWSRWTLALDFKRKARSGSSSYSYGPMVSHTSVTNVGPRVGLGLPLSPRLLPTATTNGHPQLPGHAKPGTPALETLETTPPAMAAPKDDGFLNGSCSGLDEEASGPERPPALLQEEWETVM

[3] = target: T2, PTHR^CFP and βarr-2^YFP (Homo sapiens, UniProt Q03431); assay: Time-course of β-arr2 recruitment by FRET; format: cell-based; conditions: comparison of PTH^WT and its diastereomers, fig. S1C
T2 sequence (Q03431 27-593): T1 sequence (Q03431 27-593)

| Substance | IC50 [1] [nM] | cAMP production time course [2] | interaction of PTHR with β-arr2, time course [3] |
| --- | --- | --- | --- |
| (D)-Leu(7)-PTH_(1–34)-NH2 (PTH^7d) (peptide) | 0.1 |  |  |
| (D)-Asn([10])-PTH1–34 [PTH^10d] |  | indistinguishable increases in cAMP | stimulated the interaction of PTHR with β-arr2 |
| PTH_(1–34) (PTH^WT), the synthetic N-terminal fragment of parathyroid hormone (peptide) | 0.1 |  |  |
